In data set [1] the target is T1, Esc2 200-456 (Saccharomyces cerevisiae, UniProt Q06340 200-456).
T1 sequence: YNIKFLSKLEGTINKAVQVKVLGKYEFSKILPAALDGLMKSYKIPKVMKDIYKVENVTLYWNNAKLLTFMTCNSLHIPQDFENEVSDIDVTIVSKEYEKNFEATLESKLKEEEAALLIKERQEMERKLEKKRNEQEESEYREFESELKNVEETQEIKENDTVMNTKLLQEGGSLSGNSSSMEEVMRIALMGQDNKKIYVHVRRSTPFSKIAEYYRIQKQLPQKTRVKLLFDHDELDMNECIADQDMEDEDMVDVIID
Kind of data set: EMSA; up to 1000 nM protein; EMSA, 7 nM fluorescein-labeled DNA, 10 min at 37 C; buffer, salt and pH not given in the material. As to conditions: protein: recombinant; tags: expressed as GST fusion; tag status in assay not explicit; label: 5'-fluorescein on strand 1; fork 1:3 1:4 2:4; three duplex arms. For orientation: A gel shift assay detects complexes by their altered migration in electrophoresis.

Data set [2] deals with T2, Esc2 (Saccharomyces cerevisiae, UniProt Q06340 1-456).
T2 sequence: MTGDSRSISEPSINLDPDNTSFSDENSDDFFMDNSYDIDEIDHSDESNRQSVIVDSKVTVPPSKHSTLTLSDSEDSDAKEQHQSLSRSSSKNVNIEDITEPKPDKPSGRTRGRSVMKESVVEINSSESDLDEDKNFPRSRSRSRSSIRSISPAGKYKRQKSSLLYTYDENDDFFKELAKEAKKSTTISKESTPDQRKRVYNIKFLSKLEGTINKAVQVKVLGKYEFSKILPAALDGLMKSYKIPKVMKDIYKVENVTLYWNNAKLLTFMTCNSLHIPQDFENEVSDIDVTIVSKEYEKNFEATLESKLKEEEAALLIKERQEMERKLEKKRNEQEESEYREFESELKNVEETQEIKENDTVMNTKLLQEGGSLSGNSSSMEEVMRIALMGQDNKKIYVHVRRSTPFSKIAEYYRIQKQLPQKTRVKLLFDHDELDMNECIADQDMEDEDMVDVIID
Kind of data set: EMSA; strong preference; 7 nM DNA; EMSA, 7 nM fluorescein-labeled DNA, 10 min at 37 C; buffer, salt and pH not given in the material. As to conditions: protein: recombinant, tags: GST tag removed, label: 5'-fluorescein on strand 1.

Data set [3] has as its target T3, Esc2 FF173,174AA (Saccharomyces cerevisiae, UniProt Q06340 1-456, F173A;F174A).
T3 sequence: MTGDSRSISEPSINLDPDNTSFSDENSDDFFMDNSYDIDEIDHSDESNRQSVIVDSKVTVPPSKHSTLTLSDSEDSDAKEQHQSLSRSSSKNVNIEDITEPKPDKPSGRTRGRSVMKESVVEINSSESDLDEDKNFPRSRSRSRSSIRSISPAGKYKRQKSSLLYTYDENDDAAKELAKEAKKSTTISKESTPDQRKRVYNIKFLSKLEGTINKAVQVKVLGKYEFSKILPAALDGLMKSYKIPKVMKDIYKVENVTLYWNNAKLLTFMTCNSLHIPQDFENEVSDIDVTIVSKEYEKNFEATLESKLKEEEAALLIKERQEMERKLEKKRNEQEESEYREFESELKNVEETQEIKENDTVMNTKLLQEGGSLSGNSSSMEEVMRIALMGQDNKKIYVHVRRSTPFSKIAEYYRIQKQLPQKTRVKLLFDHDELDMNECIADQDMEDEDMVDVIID
Kind of data set: EMSA; still proficient, degree only in figure; EMSA, 7 nM fluorescein-labeled DNA, 10 min at 37 C; buffer, salt and pH not given in the material. Conditions: protein: recombinant; tags: expressed as GST fusion; tag status in assay not explicit; label: 5'-fluorescein on strand 1; fork 1:3 1:4 2:4; three duplex arms.

The target of data set [4] is T4, Esc2 1-151 (Saccharomyces cerevisiae, UniProt Q06340 1-151).
T4 sequence: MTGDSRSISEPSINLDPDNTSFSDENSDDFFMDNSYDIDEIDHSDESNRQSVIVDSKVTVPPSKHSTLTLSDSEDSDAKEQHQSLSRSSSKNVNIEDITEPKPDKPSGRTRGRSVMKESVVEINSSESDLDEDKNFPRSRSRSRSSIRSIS
The data set can be described thus: EMSA; binding completely lost; up to 1000 nM protein; EMSA, 7 nM fluorescein-labeled DNA, 10 min at 37 C; buffer, salt and pH not given in the material. Conditions: protein: recombinant; tags: expressed as GST fusion; tag status in assay not explicit; label: 5'-fluorescein on strand 1; fork 1:3 1:4 2:4; three duplex arms.

Data set [5] deals with T5, Esc2 1-199 (Saccharomyces cerevisiae, UniProt Q06340 1-199).
T5 sequence: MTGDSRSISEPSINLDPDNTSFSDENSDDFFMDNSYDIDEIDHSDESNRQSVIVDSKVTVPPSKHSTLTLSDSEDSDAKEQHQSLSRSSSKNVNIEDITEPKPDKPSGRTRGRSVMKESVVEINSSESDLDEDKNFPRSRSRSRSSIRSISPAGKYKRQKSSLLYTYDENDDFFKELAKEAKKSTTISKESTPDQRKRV
The data set can be described thus: EMSA; highly proficient; 7 nM DNA, 0-1000 nM protein; EMSA, 7 nM fluorescein-labeled DNA, 10 min at 37 C; buffer, salt and pH not given in the material. Conditions: protein: recombinant; tags: expressed as GST fusion; tag status in assay not explicit; label: 5'-fluorescein on strand 1; fork 1:3 1:4 2:4; three duplex arms.

B1: Fork (oligos 18, 20, 21, 22) (structured_DNA)
DNA 1: AGCTACCATGCCTGCACGAATTAAGCAATTCGTAATCATGGTCATAGCT
DNA 2: CTACAGTTCGTCAGGATTCC
DNA 3: AATTCGTGCAGGCATGGTAGCT
DNA 4: AGCTATGACCATGATTACGAATTGCTTGGAATCCTGACGAACTGTAG
Turning to B1, the binding result is reported as “no binding” in data set [1]; “binds” in data set [2] (fork 1:3 1:4 2:4, three duplex arms); “binds” in data set [3]; “no binding” in data set [4]; “binds” in data set [5].

B2: 3'-Flap (oligos 18, 21, 22) (structured_DNA)
DNA 1: AGCTACCATGCCTGCACGAATTAAGCAATTCGTAATCATGGTCATAGCT
DNA 2: AATTCGTGCAGGCATGGTAGCT
DNA 3: AGCTATGACCATGATTACGAATTGCTTGGAATCCTGACGAACTGTAG
Regarding B2, the binding result in data set [2] (3' flap 1:2 1:3, 20 nt ss 3' flap on strand 3) is “binds”.

Source of the values: paper PMC4604347, “Local regulation of the Srs2 helicase by the SUMO-like domain protein Esc2 promotes recombination at sites of stalled replication”.
